Data: publication PMC5308896, “A conformational switch regulates the ubiquitin ligase HUWE1” (eLife, 2017)
Ends that are not written are not given here.

Assays:
Assay in all cases: fluorescence polarisation; apparent KD; constant 1 μM TAMRA-labelled p14ARF (45–64) peptide titrated with HUWE1 protein; 25°C, 20 mM HEPES pH 8.0, 150 mM NaCl, 10% glycerol, 1 mM EDTA, 5 mM DTT; three independent experiments
Conditions in all cases: both partners purified
[1] = biological target: T1, HUWE1 (3993–4374), HECT domain (human, UniProt Q7Z6Z7 3993-4374)
T1 construct: also called isolated HECT domain; source: LOBSTR RIL cells, purified (IMAC, gel filtration)
T1 sequence (looked up): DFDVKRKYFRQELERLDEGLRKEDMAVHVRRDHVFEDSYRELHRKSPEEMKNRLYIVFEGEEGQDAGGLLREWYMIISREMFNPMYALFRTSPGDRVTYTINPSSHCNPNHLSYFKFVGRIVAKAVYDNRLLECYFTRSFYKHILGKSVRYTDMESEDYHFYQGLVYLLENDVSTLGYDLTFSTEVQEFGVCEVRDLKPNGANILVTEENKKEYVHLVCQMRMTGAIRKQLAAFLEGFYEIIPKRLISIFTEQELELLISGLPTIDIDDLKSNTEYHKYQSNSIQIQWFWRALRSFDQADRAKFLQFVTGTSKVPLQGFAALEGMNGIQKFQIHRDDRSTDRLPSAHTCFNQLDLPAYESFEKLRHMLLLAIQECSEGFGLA

[2] = biological target: T2, HUWE1 (3759–4374) (human, UniProt Q7Z6Z7 3759-4374)
T2 construct: also called extended C-terminal HUWE1 fragment; source: LOBSTR RIL cells, purified (IMAC, gel filtration)
T2 sequence (looked up): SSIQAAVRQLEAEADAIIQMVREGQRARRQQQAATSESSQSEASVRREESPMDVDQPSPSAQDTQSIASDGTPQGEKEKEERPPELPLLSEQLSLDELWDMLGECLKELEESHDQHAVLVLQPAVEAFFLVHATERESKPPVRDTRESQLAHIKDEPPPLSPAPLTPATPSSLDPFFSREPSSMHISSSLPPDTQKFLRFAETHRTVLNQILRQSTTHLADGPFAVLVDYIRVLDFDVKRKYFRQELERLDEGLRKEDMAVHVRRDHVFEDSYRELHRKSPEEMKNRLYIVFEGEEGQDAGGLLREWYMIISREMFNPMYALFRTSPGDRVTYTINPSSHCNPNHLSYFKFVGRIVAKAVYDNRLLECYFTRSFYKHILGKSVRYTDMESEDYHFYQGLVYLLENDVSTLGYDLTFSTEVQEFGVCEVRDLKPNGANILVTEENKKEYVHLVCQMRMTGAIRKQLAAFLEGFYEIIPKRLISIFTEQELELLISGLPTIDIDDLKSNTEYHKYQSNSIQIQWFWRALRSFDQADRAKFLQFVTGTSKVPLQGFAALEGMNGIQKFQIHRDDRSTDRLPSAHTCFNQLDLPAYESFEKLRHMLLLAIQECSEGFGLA

[3] = biological target: T3, HUWE1 (3896–4374) (human, UniProt Q7Z6Z7 3896-4374)
T3 construct: source: LOBSTR RIL cells, purified (IMAC, gel filtration)
T3 sequence (looked up): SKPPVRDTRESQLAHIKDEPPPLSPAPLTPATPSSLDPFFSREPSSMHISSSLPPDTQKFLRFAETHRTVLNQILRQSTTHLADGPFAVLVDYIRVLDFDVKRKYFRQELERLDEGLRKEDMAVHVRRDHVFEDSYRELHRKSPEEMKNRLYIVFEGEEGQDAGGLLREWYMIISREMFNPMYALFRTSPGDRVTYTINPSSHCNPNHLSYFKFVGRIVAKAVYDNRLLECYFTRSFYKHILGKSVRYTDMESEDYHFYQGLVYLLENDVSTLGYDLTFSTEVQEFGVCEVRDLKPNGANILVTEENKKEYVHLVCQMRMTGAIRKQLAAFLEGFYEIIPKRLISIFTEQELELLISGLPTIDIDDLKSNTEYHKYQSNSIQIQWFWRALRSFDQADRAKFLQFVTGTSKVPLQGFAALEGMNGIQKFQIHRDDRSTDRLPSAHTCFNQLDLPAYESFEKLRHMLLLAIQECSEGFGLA

B1: fluorophor-labeled p14ARF-derived peptide (residues 45–64), TAMRA-labelled (peptide)
peptide: LVLMLLRSQRLGQQPLPRRPK(TAMRA)
notes: p14ARF (alternative reading frame product of CDKN2A), human, residues 45–64; additional lysine residue at the C-terminus that carries the TAMRA label (told in words); also called p14ARF-peptide; p14ARF (45-64); source: synthetic peptide, bought: Elim Biopharm
[1]
  Kd: 230 ± 40 µM
[2]
  Kd: 7.7 ± 0.4 µM
[3]
  Kd: 340 ± 60 µM
